Laboratory results reported in the supplement of paper PMC9170038.

Test system: MS2 coat protein
Assay: apparent KD of MS2 coat protein; designed switch direction (-1 OFF switch, 1 ON switch): -1; higher = weaker reporter binding
Summary of the method: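 Normalised cluster fluorescence was curve-fitted, and each design's median over clusters is its apparent KD. Before this, SNAP-549-labelled MS2 coat protein was titrated from 0.7 or 1.5 nM, doubling to 3 µM, over RNA switches transcribed on Illumina chips by stalled E. coli RNA polymerase. Titrations had no input, 200 uM small-molecule ligand, or an oligonucleotide input, and steps lasted 0.8–1.5 h (lowest) to 10–20 min (highest).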

[1] = input ligand: microRNA oligo, concentration not stated
[2] = Eterna round: R95, input ligand: FMN 200 uM
[3] = Eterna round: R95, input ligand: microRNA oligo, concentration not stated
[4] = Eterna round: R95, input ligand: none

Row | Sequence | apparent KD of MS2 coat protein (input ligand: FMN 200 uM) [nM] | apparent KD of MS2 coat protein [1] [nM] | apparent KD of MS2 coat protein (input ligand: none) [nM] | apparent KD of MS2 coat protein [2] [nM] | apparent KD of MS2 coat protein [3] [nM] | apparent KD of MS2 coat protein [4] [nM]
1 | AGCUAGUCAGGAUAUACGAACACCUCAAAAGAGGUGAAGGGACAUGAGGAUCACCCAUGUAGAAGGGACUAGCA [Mat - Exclusion 2 - JL mod - D29] (Eterna round: R96, puzzle: Exclusion 2) | 167 | 21.3 | 24.3 |  |  | 
2 | AGCUGACGAGGAUAUACAUGAGGAUCACCCAUGUUGGUCAAGCGACUUCGGUCGCAAUGUAGAAGGCGUCAGCU [E3/8-A4] (Eterna round: R97, puzzle: Exclusion 3) | 263 |  | 430 |  |  | 
3 | AGCUGACGAGGAUAUACAUGAGGAUCACCCAUGUUGGUUCAGCGACGAUAGUCGCAAUGUAGAAGGCGUCAGCU [E3/9-A1] (Eterna round: R97, puzzle: Exclusion 3) | 77.4 |  | 496 |  |  | 
4 | AGCUGUGGCCAAGGAUAUCCAGCCUUAAAUACCGACGUAUAGUCGGACAUGAGGAUCACCCAUGUGGAGAAGGUGGUCUCAGCA [Eli eng2 - 040] (Eterna round: R96, puzzle: Exclusion NG 2) | 109 | 45 | 56.8 |  |  | 
5 | AGCUGUGGCCGAGGAUAUCACGAACCAUGGAAAACCAUGGAAACUCUACAUGAGGAUCACCCAUGUGAGAAGGCGGUCUCAGCA [Eli eng2 - 022] (Eterna round: R96, puzzle: Exclusion NG 2) | 87.7 | 21.6 | 35.2 |  |  | 
6 | AGCUGUGGCCGAGGAUAUCCAACCUUAAAUACCGACGUAUAGUCGGACAUGAGGAUCACCCAUGUGGAGAAGGCGGUCUCAGCA [Eli eng2 - 039] (Eterna round: R96, puzzle: Exclusion NG 2) | 62.5 | 28 | 47.1 |  |  | 
7 | AGCUGUGGCCGAGGAUAUCCACAUGAGGAUCACCCAUGUUGAUACGCCGUUAGGCGAUAUAGAAGGGAGAAGGCGGUCUCAGCA [Eli eng2 - 050] (Eterna round: R96, puzzle: Exclusion NG 2) | 7.84 | 7.26 | 13.7 |  |  | 
8 | AGCUGUGGCCGAGGAUAUCUAAACUCAAUAACCGAAAUAUAAUCGGACAUGAGGAUCACCCAUGUAGAGAAGGCGGUCUCAGCA [Eli eng2 - 081] (Eterna round: R96, puzzle: Exclusion NG 2) |  | 28 |  |  |  | 
9 | AGCUGUGGCCGAGGAUAUCUAUCCAAUAUAACCGAAAUAUAAUCGGACAUGAGGAUCACCCAUGUAGAGAAGGCGGUCUCAGCA [Eli eng2 - 093] (Eterna round: R96, puzzle: Exclusion NG 2) |  | 15.3 |  |  |  | 
10 | AGCUGUGGCCGAGGAUAUCUAUCCCAAAUAACCGAAAUAUAAUCGGACAUGAGGAUCACCCAUGUAGAGAAGGCGGUCUCAGCA [Eli eng2 - 088] (Eterna round: R96, puzzle: Exclusion NG 2) |  | 20.4 |  |  |  | 
11 | AGCUGUGGCCGAGGAUAUCUGUUCCAUAUAACCGAAAUAUAAUCGGACAUGAGGAUCACCCAUGUAGAGAAGGCGGUCUCAGCA [Eli eng2 - 100] (Eterna round: R96, puzzle: Exclusion NG 2) |  | 18.8 |  |  |  | 
12 | AGCUGUGGCCGAGGAUAUGACAUGAGGAUCACCCAUGUACACGAUUAGGCCUGGUAACAGGCUCAUCAGAAGGCGGUCUCAGCA [Eli eng2 - 017] (Eterna round: R96, puzzle: Exclusion NG 2) | 9.77 | 10.4 | 13 |  |  | 
13 | AGCUGUGGCCGAGGAUAUGACAUGAGGAUCACCCAUGUACAUAAUUAGGCCUGGUAACAGGCUCGUCAGAAGGCGGUCUCAGCA [Eli eng2 - 007] (Eterna round: R96, puzzle: Exclusion NG 2) | 12.3 | 8.31 | 12.6 |  |  | 
14 | AGCUGUGGCCGAGGAUAUGACAUGAGGAUCACCCAUGUACAUAAUUAGGCCUGGUAACAGGCUCUUCAGAAGGCGGUCUCAGCA [Eli eng2 - 006] (Eterna round: R96, puzzle: Exclusion NG 2) | 7.27 | 6.45 | 11.8 |  |  | 
15 | AGCUGUGGCCGAGGAUAUGACAUGAGGAUCACCCAUGUACGUAAUUAGGCCUGGUAACAGGCUCGUCAGAAGGCGGUCUCAGCA [Eli eng2 - 008] (Eterna round: R96, puzzle: Exclusion NG 2) | 12.2 | 7.43 | 15.3 |  |  | 
16 | AGCUGUGGCCGAGGAUAUUACGAACCAUGGAAAACCAUGGAAACUCUACAUGAGGAUCACCCAUGUAAGAAGGCGGUCUCAGCA [Eli eng2 - 024] (Eterna round: R96, puzzle: Exclusion NG 2) | 47.5 | 11.7 | 16.4 |  |  | 
17 | AGCUUUUUGUUUUUGGGUGACAUGAGGAUCACCCAUGUCUUAUGGGCCCAGUAGUAGUAAGAUAGAAGGGACCCACG [-20.8, -41.27, a 31%] (Eterna round: R97, puzzle: Sensor, turn-off variant 1) | 639 |  | 731 |  |  | 
18 | AGGAGUAGUAAGGAUAUAGCGGACUAGUCGUCGUUAGAAGGUACUACAUGAGGAUCACCCAUGUUGACCUGAGC [EX6 B.14] (Eterna round: R97, puzzle: Exclusion 6) | 46.5 |  | 19.6 |  |  | 
19 | AGGAGUGAAGGAUAUACAUGAGGAUCACCCAUGUGGGAGGAAAGAGGUGAUGGAGAUAGUAGAAGGUCAGGAUG [JR_Exclusion3_Sub005] (puzzle: Exclusion 3) |  |  |  | 99.9 | 93.9 | 116
20 | AGGCUGUCAGGAUAUCUGCGCCGUGGUGCGCGGCGUUAUAAAGAGAAGGGACAUGAGGAUCACCCAUGUCCUCA [EX4 B.25] (Eterna round: R97, puzzle: Exclusion 4) | 79.7 |  | 19.4 |  |  | 
21 | AGGGAACAUGAGGAUCACCCAUGUGAGGAUAUACAAAAGAAAAGAAAAGAAAGAAGAAGUAGAAGGUACAAGAA [Neferka] (Eterna round: R96, puzzle: Exclusion 1) | 32.4 | 26.9 | 32.8 |  |  | 
22 | AGGGAACCCAAGGAUAUUGAGAGUUAAGCCACUUAAGAAGGUGGUACAUGAGGAUCACCCAUGUCCCUUGCAGA [Eternabot (L1) Solution 6] (Eterna round: R97, puzzle: Exclusion 6) | 38.3 |  | 41.6 |  |  | 
23 | AGGUAACAUGAGGAUCACCCAUGUCAGGAUAUCAGGAAGAUUAGAAUAGAGUAGAGGAUGAGAAGGGACUAUAU [Excluse me! 18- Jieux - Exclusion 1] (Eterna round: R96, puzzle: Exclusion 1) |  | 24.7 |  |  |  | 
24 | AGGUAACAUGAGGAUCACCCAUGUCAGGAUAUCAGGAAGAUUAGAAUAGAGUAGAGGAUGAGAAGGGACUAUAU [Excluse me! 18- Jieux - Exclusion 1] (puzzle: Exclusion 1) |  |  |  | 31 | 31.7 | 43.1
25 | AGGUCACAUGAGGAUCACCCAUGUCAGGAUAUCUACAUUGAAGCCUCGGCUUCAAUGUAGAGAAGGGAUAAUUA [E1/8-B2] (Eterna round: R97, puzzle: Exclusion 1) | 63.7 |  | 44.7 |  |  | 
26 | AGGUCACAUGAGGAUCACCCAUGUCAGGAUAUCUACAUUGAAGCUUCGGCUUCAAUGUAGAGAAGGGACAAUUA [E1/6-B1] (Eterna round: R97, puzzle: Exclusion 1) | 341 |  | 75.7 |  |  | 
27 | AGGUCCUUCUGGACACAUGAGGAUCACCCAUGUGAGGUCAGCGAGGAUAUCGGUCAAUAAUGUGACGAGAAGGCGCGGACCGAU [Ex NG3 #58] (Eterna round: R96, puzzle: Exclusion NG 3) | 31.6 | 14.8 | 19.1 |  |  | 
28 | AGGUCCUUCUGGAGACAUGAGGAUCACCCAUGUCGAGUCAGCGAGGAUAUCGGUUAAUAAUGUGACGAGAAGGCGCGGACCGAU [Ex NG3 #55] (Eterna round: R96, puzzle: Exclusion NG 3) | 45.1 | 9.82 | 13 |  |  | 
29 | AGGUGACAUGAGGAUCACCCAUGUGAGGAUAUCUGGAUACUCUUUAUUUUAGAUAUCCAGAGAAGGCACACCCU [Ex1-3: 8Z] (puzzle: Exclusion 1) |  |  |  |  | 235 | 
30 | AGGUGCUUCUGGAGACAUGAGGAUCACCCAUGUCGAGUCAGCGAGGAUAUCGGUAAGACAUGUGAUGAGAAGGCGCAGACCGAU [Ex NG3 #52] (Eterna round: R96, puzzle: Exclusion NG 3) | 48.6 | 22.6 | 30.8 |  |  | 
